Substrate in the data set: O=[N+]([O-])c1ccc(O[C@@H]2OC[C@@H](O)[C@H](O)[C@H]2O)cc1
As to the kind of experiment: purified protein. It is filed as biochemical, Sporisorium reilianum. Conditions: 50 mM-type acetate buffer assay, pH 4, substrate 1-7 mM, temperature not stated for the kinetics.

B1: β-xylosidase SRBX1 (Sporisorium reilianum SRZ2) (protein)
chain: ASLEHLNMLFHTRQADASNSTDSSSVNWNISSSDNSALATAPLAGTFYRGGPALADANSPFHPVTGNGGWEWAVVKARSVVGQLTLEEKVNLTAGITGGRCEGTLGRVDRFGIPELCFQDGPAGFRASDFVTVFPAGVTTAATWNRDLIYKRAAALGAEFVAKGVNVHLGPVTGGPLGRSPFQGRNWEGFGPDPYLHGEAAYYTVSGTQSAGVISTAKHFLAYEQETYRQLYAASDPFTLNPNNNTELTYSANLDDRTLHELYLWPFMNAVRAGTGALVCVYNRVNSTQGCESSKLLNEILKDELDYQGFVVTDWSAAFNTSNTYNGGSDVVMPGGMTGGYKNLVGGSDLVRALNAGEVKIERINDGITRLLTQWYLRGQDKGYPTVSYKDGYQNTIFNGTVVNEHRDVQGDHRKIVKEIGEEAVTLIYNKRSNKAGPQGNTDFGLGLPLAKKARVAVFGSDAGPNPYGANACQDWIGLGSQLCPANATSNGTQAVGWGSGAGFFPYLIDPLAGISEVAKENRGAVLHNLNDVGDDKNQMYVKQQAGLADASLVFVQARSGEDSDRHSLRLDADGDELIKLVASQSNNTIVVMHTVGPVLMGDWFDHPNITALVLPHLPGQESGSSLARVLYGDVNPSGKMPYSMLSDEDAKRYPKIVGSPASDPQVDFYDGLYIDYRAWDKMGLKPLIPFGHGISYTNYSYSNLHIQKAGDNCYAPSAFSGSFKSDKQPGGPGSLFQYLVEVSADVQNVGAMAGDEVAQLYVGYPEAANAPIKQLRGFDKVQGLEPGAASKQATFKLAKRDFSVWDVVKQKFEVVDGEYKIWVGKSSRMSDLTLKGSVTMQNGMVVGMSS
notes: native extracellular enzyme purified from S. reilianum culture supernatant by gel filtration; theoretical precursor 874 aa, signal peptide 1-23; monomer; 12 theoretical glycosylation sites; no tag
Regarding B1, the Km came out at 2500 µM.

The record behind these values is publication PMC9781407, “β-Xylosidase SRBX1 Activity from Sporisorium reilianum and Its Synergism with Xylanase SRXL1 in Xylose Release from Corn Hemicellulose” (Journal of Fungi, 2022).
